Experimental data reported in article PMC11367651.

Key:
Details in all cases: reference: unphosphorylated MAP2c; sites Y67
[1] = target: Grb2 (growth factor receptor-bound protein 2) SH2 domain, 57-158 (UniProt P62993); assay: NMR HNCO peak broadening of labeled MAP2c
[2] = target: Grb2 (growth factor receptor-bound protein 2) SH2 domain, 57-158 (UniProt P62993); assay: NMR HNCO chemical shift perturbation of MAP2c
[3] = target: Grb2 (growth factor receptor-bound protein 2) SH2 domain, 57-158 (UniProt P62993); assay: 1H,15N HSQC titration of 15N-Grb2-SH2 with MAP2c

MAP2c (microtubule-associated protein 2c) (from UniProt P15146) Fyn-phosphorylated MAP2c
binding against the reference [1]: stronger
binding against the reference [2]: gained
KD [3]: gained; reference No significant CCSP
